Laboratory results published in patent publication US20240059797A1 (GRITSTONE BIO, published 2024).

B1: G10(1E12) scFv (scFv, V domains shown)
VH: QVQLVQSGAEVKKPGASVKVSCKASGYIFTGYYMHWVRQAPGQGLEWMGMIGPSDGSTSYAQKFQGRVTMTRDTSTSTVYMELSSLRSEDTAVYYCAREDDSMDVWGKGTTVTVSS
VL: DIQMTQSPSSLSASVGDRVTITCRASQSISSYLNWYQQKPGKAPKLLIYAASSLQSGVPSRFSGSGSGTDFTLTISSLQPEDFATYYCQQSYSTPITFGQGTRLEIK
B2: G10(4E12) scFv (scFv, V domains shown)
VH: QVQLVQSGAEVKKPGASVKVSCKASGYTFTGYYMHWVRQAPGQGLEWMGMIGPSDGSTSYAQRFQGRVTMTRDTSTSTVYMELSSLRSEDTAVYYCAREEDGMDVWGQGTTVTVSS
VL: DIQMTQSPSSLSASVGDRVTITCRASQGISTYLAWYQQKPGKAPKLLIYDASSLQSGVPSRFSGSGSGTDFTLTISSLQPEDFATYYCQQYYSYPWTFGQGTRLEIK
B3: G10(1B07) scFv (scFv, V domains shown)
VH: QVQLVQSGAEVKKPGASVKVSCKASGYTFTSYYMHWVRQAPGQGLEWMGIIHPGGGTTSYAQKFQGRVTMTRDTSTSTVYMELSSLRSEDTAVYYCARDKVYGDGFDPWGQGTLVTVSS
VL: DIQMTQSPSSLSASVGDRVTITCRASQSISRWLAWYQQKPGKAPKLLIFDASRLQSGVPSRFSGSGSGTDFTLTISSLQPEDFATYYCQQAEAFPYTFGQGTKVEIK
B4: G10(1A07) scFv (scFv, V domains shown)
VH: EVQLLESGGGLVKPGGSLRLSCAASGFTFSSYWMSWVRQAPGKGLEWVSGISARSGRTYYADSVKGRFTISRDDSKNTLYLQMNSLKTEDTAVYYCARDQDTIFGVVITWFDPWGQGTLVTVSS
VL: DIQMTQSPSSLSASVGDRVTITCRASQGISNYLAWYQQKPGKAPKLLIYAASSLQGGVPSRFSGSGSGTDFTLTISSLQPEDFATYYCQQYFTTPYTFGQGTKLEIK
B5: G8(5F02) scFv (scFv, V domains shown)
VH: QVQLVQSGAEVKKPGASVKVSCKASGYTFTGYYIHWVRQAPGQGLEWMGVINPSGGSTTYAQKLQGRVTMTRDTSTSTVYMELSSLRSEDTAVYYCARDRDSSWTYYYYGMDVWGQGTTVTVSS
VL: EIVMTQSPATLSVSPGERATLSCRASQSVGNSLAWYQQKPGQAPRLLIYGASTRATGIPARFSGSGSGTEFTLTISSLQSEDFAVYYCQQYGSSPYTFGQGTKVEIK
B6: G8(1H08) scFv (scFv, V domains shown)
VH: QVQLVQSGAEVKKPGASVKVSCKASGYTFGNYFMHWVRQAPGQGLEWMGMVNPSGGSETFAQKFQGRVTMTRDTSTSTVYMELSSLRSEDTAVYYCAASTWIQPFDYWGQGTLVTVSS
VL: DIQMTQSPSSLSASVGDRVTITCRASQGINSYLAWYQQKPGKAPKLLIYDASNLETGVPSRFSGSGSGTDFTLTISSLQPEDFATYYCQQHNSYPPTFGQGTKLEIK
notes: also called G8-P1H08
B7: G8(1C01) scFv (scFv, V domains shown)
VH: QVQLVQSGAEVKKPGASVKVSCKASGGTFSSHAISWVRQAPGQGLEWMGVIIPSGGTSYTQKFQGRVTMTRDTSTSTVYMELSSLRSEDTAVYYCARGDYYDSSGYYFPVYFDYWGQGTLVTVSS
VL: DIQMTQSPSSLSASVGDRVTITCRASQNIYTYLNWYQQKPGKAPKLLIYDASNLETGVPSRFSGSGSGTDFTLTISSLQPEDFATYYCQQANGFPLTFGGGTKVEIK
B8: G8(1A03) scFv (scFv, V domains shown)
VH: QVQLVQSGAEVKKPGASVKVSCKASGGTFSRSAITWVRQAPGQGLEWMGWINPNSGATNYAQKFQGRVTMTRDTSTSTVYMELSSLRSEDTAVYYCARDDYGDYVAYFQHWGQGTLVTVSS
VL: DIQMTQSPSSLSASVGDRVTITCRASQSITSYLNWYQQKPGKAPKLLIYDASNLETGVPSRFSGSGSGTDFTLTISSLQPEDFATYYCQQNYNSVTFGQGTKLEIK
B9: G8(1A06) scFv (scFv, V domains shown)
VH: QVQLVQSGAEVKKPGASVKVSCKASGYTFTNYYMHWVRQAPGQGLEWMGWMNPIGGGTGYAQKFQGRVTMTRDTSTSTVYMELSSLRSEDTAVYYCARVYDFWSVLSGFDIWGQGTLVTVSS
VL: DIQMTQSPSSLSASVGDRVTITCRASQAISNSLAWYQQKPGKAPKLLIYAASTLQSGVPSRFSGSGSGTDFTLTISSLQPEDFATYYCGQSYSTPPTFGQGTKLEIK
B10: G8(2E04) scFv (scFv, V domains shown)
VH: QVQLVQSGAEVKKPGSSVKVSCKASGGTFSSYGVSWVRQAPGQGLEWMGWISPYSGNTDYAQKFQGRVTITADESTSTAYMELSSLRSEDTAVYYCARGLYYMDVWGKGTTVTVSS
VL: DIQMTQSPSSLSASVGDRVTITCRASQSISSWLAWYQQKPGKAPKLLIYDASNLETGVPSRFSGSGSGTDFTLTISSLQPEDFATYYCQQSYSTPLTFGGGTKLEIK
B11: G8(2B05) scFv (scFv, V domains shown)
VH: EVQLLESGGGLVQPGGSLRLSCAASGFDFSIYSMNWVRQAPGKGLEWVSAISGSGGSTYYADSVKGRFTISRDNSKNTLYLQMNSLRAEDTAVYYCASNGNYYGSGSYYNYWGQGTLVTVSS
VL: DIQMTQSPSSLSASVGDRVTITCRASQSISRWLAWYQQKPGKAPKLLIYAASSLQSGVPSRFSGSGSGTDFTLTISSLQPEDFATYYCQQYSTYPITIGQGTKVEIK
B12: G8(1A04) scFv (scFv, V domains shown)
VH: QVQLVQSGAEVKKPGASVKVSCKASGYPFIGQYLHWVRQAPGQGLEWMGIINPSGDSATYAQKFQGRVTMTRDTSTSTVYMELSSLRSEDTAVYYCARDLSYYYGMDVWGQGTTVTVSS
VL: DIQMTQSPSSLSASVGDRVTITCWASQGISSYLAWYQQKPGKAPKLLIYAASSLQSGVPSRFSGSGSGTDFTLTISSLQPEDFATYYCQQSYNTPWTFGPGTKVDIK
B13: G8(4F05) scFv (scFv, V domains shown)
VH: QVQLVQSGAEVKKPGASVKVSCKASGYTFSNMYLHWVRQAPGQGLEWMGWINPNTGDTNYAQTFQGRVTMTRDTSTSTVYMELSSLRSEDTAVYYCARGLYGDYFLYYGMDVWGQGTKVTVSS
VL: DIQMTQSPSSLSASVGDRVTITCRASQGISNYLAWYQQKPGKAPKLLIYAASTLQSGVPSRFSGSGSGTDFTLTISSLQPEDFATYYCQQSYSTPLTFGGGTKVEIK
B14: G8(2E06) scFv (scFv, V domains shown)
VH: QVQLVQSGAEVKKPGASVKVSCKASGYTLTTYYMHWVRQAPGQGLEWMGWINPNSGGTNYAQKFQGRVTMTRDTSTSTVYMELSSLRSEDTAVYYCARAVYYDFWSGPFDYWGQGTLVTVSS
VL: DIQMTQSPSSLSASVGDRVTITCRASQGISNSLAWYQQKPGKAPKLLIYAASSLQSGVPSRFSGSGSGTDFTLTISSLQPEDFATYYCQQANSFPWTFGQGTKLEIK
B15: G8(1D02) scFv (scFv, V domains shown)
VH: EVQLLESGGGLVQPGGSLRLSCAASGFTFSSYWMSWVRQAPGKGLEWVSSISGRGDNTYYADSVKGRFTISRDNSKNTLYLQMNSLRAEDTAVYYCARASGSGYYYYYGMDVWGQGTTVTVSS
VL: DIQMTQSPSSLSASVGDRVTITCQASQDISNYLNWYQQKPGKAPKLLIYAASSLQSGVPSRFSGSGSGTDFTLTISSLQPEDFATYYCQQSYSAPYTFGGGTKVEIK
B16: G8(5C03) scFv (scFv, V domains shown)
VH: QVQLVQSGAEVKKPGASVKVSCKASGYTFTSYYMHWVRQAPGQGLEWMGWMNPNSGNTGYAQKFQGRVTMTRDTSTSTVYMELSSLRSEDTAVYYCARGLLGFGEFLTYGMDVWGQGTLVTVSS
VL: DIQMTQSPSSLSASVGDRVTITCRASQGISNWLAWYQQKPGKAPKLLIYAASTLQSGVPSRFSGSGSGTDFTLTISSLQPEDFATYYCQQTYSTPWTFGQGTKLEIK
B17: G8(1C11) scFv (scFv, V domains shown)
VH: QVQLVQSGAEVKKPGASVKVSCKASGGTLSSYPINWVRQAPGQGLEWMGWISTYSGHADYAQKLQGRVTMTRDTSTSTVYMELSSLRSEDTAVYYCARSYDYGDYLNFDYWGQGTLVTVSS
VL: DIQMTQSPSSLSASVGDRVTITCQASQDISNYLNWYQQKPGKAPKLLIYAASSLQSGVPSRFSGSGSGTDFTLTISSLQPEDFATYYCQQSYSIPPTFGGGTKVDIK
B18: G8(1B03) scFv (scFv, V domains shown)
VH: EVQLLESGGGLVQPGGSLRLSCAASGFTFSDYYMSWVRQAPGKGLEWVSGINWNGGSTGYADSVKGRFTISRDNSKNTLYLQMNSLRAEDTAVYYCARVEQGYDIYYYYYMDVWGKGTTVTVSS
VL: DIQMTQSPSSLSASVGDRVTITCRASQSISSYLNWYQQKPGKAPKLLIYKASSLESGVPSRFSGSGSGTDFTLTISSLQPEDFATYYCQQSYSAPYTFGPGTKVDIK
B19: G8(2C10) scFv (scFv, V domains shown)
VH: QVQLVQSGAEVKKPGASVKVSCKASGYTFTSYYMHWVRQAPGQGLEWMGWINPYSGGTNYAQKFQGRVTMTRDTSTSTVYMELSSLRSEDTAVYYCAKGGIYYGSGSYPSWGQGTLVTVSS
VL: DIQMTQSPSSLSASVGDRVTITCRASQDVSTWLAWYQQKPGKAPKLLIYAASSLQSGVPSRFSGSGSGTDFTLTISSLQPEDFATYYCQQSHSTPQTFGQGTKVEIK
B20: G8(2C11) scFv (scFv, V domains shown)
VH: QVQLVQSGAEVKKPGASVKVSCKASGYTFTSYAMNWVRQAPGQGLEWMGWINPNSGGTNYAQKFQGRVTMTRDTSTSTVYMELSSLRSEDTAVYYCARDPFWSGHYYYYGMDVWGQGTTVTVSS
VL: not shown
B21: G8(5G08) scFv (scFv, V domains shown)
VH: QVQLVQSGAEVKKPGASVKVSCKASGYTFTSNYMHWVRQAPGQGLEWMGWMNPNSGNTGYAQKFQGRVTMTRDTSTSTVYMELSSLRSEDTAVYYCARGLYGDYFLYYGMDVWGQGTTVTVSS
VL: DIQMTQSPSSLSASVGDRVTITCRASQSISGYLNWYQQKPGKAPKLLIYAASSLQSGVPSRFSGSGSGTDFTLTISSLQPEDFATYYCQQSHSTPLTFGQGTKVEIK

Target: HLA-A*01:01_… (HLA-PEPTIDE target G10), recombinant biotinylated complex (human, enzymatically biotinylated (BirA))
Test: scFv PPE ELISA

Fold selective binding to target pHLA over minipool of negative control pHLAs, ≥ 3 fold:
B1, B2, B3, B4

Target: HLA-A*02:01_… (HLA-PEPTIDE target G8), recombinant complex (human, enzymatically biotinylated (BirA) for screening and functional assays)
Test: scFv PPE ELISA

Fold selective binding to target pHLA over minipool of negative control pHLAs, ≥ 3 fold:
B5, B6, B7, B8, B9, B10, B11, B12, B13, B14, B15, B16, B17, B18, B19, B20, B21
